Test results reported in the DeepSol protein solubility set.

Assay: soluble on expression in E. coli; label from the status in PepcDB or PDB records

**Q.** With “MAHHHHHHMPAAVTVHPLVLLSIVDHVTRVGLQTQQQRSPQKQGSAPDAAAASLPAPVFLSTAGLLMGTTRASGPVVTSTCSAESGGRGITTTLCASFEFPLRLQSTDGVAVAVAPSGDATFLQNILRDKTDWPAAQKHREQLSAVMPEMDVVGCYVVCASSRWTSTRHPRGGDDRDGSQLSVGGAVKKAKGEAMAGADHIAAIANCVQQQLRSTSILPSTATGFVLLVVYDKEVTSAAGDTDTAAPNPPHSPAAARLPFDCLYVPATTASDASPTEEVTVGPSDMEWIALANETMMPAYHQSSTTTCSAAVKPGLLRRLCSAAYLTSEGPDSREPANTQTSRMASSQNCRAAEELVGSLRLIMRVLVEMTASTLSPTGTAPDDVELLRTVATCLRNVPVSHPSQPPGEPRAPSELPTEEMLSAILALEVQCALHMRSLSKAQQQLLSSSRSAMTAFHSKACSPKAANPPPPLPSAEGWSTHERDKRSGVNTAVPGHGWV” as the sequence, how does the “soluble on expression in E. coli” value read?
**A.** not soluble

**Q.** With “MAHHHHHHMPAHRRYSSVSSSSSRAFSEPSDGGTSSVNDSNSYYSEGSGSYRSVSSVLASRSGAKTTAATTASSTSAVDSSSTNTFSDVLTTSSAYSHSSAPPRRAVTRPAASRSEAVGHKTTKGASGVVVADHNNTGVGETLAQRTASTFTAPTTASSVTVDGTDGLVRAPQSLMLQAALAPVSNRTANVARVKPCNVSEEELVHHPWAPVDCDTTVDASKEGGDRGGLALNVLDTIHTVPIAVPLPPEEAPRRREEGSPTYPSRLAFRVVPSSSPLRHSDSAVTEDKDGTGNGGGGAALGADGATAPRARKTSIACCCCCCLHGCGEKAPCNTKRYTATRQKPHHPLRSHHVPLVSFRTTREHGIPMEGVQNVLPSVEEAARYQNLKVDMMGTEEFPKLMRKAIQPRDRLAGGLRLEKSYAFGHGAGGGRGGAGQSAFVRDGDPQGFWIAHLHRCAIVRLEPIGAE” as the sequence, how does the “soluble on expression in E. coli” value read?
**A.** not soluble

**Q.** Which “soluble on expression in E. coli” value does the source give for “MAHHHHHHMPAVADCTVVFPLRHDPASTHPDVSGLVGKAFERVNWRDAFDTFLAEERSALWAAKTAFDNTDTSAYIAARDALFPQAVSGVHGAVAFRNRAGHKLHETMEAVGLWEYLKGGATRAKGTFTFVDVCGGPGAFSQALFAMGKEHKLRLRGFGLTLRNVKGLDWYTDLPSRSFFPCYGIDGTGDVFKLENIESLCSLTCKENVRLVVADGGFDVPTEVVNFQETISCRIVYGQWLSAVKLLRPGGCFVLKLFDCFSPFTRAILFLTTHLYESVQVVKPRHSRVVNSERYLVCIGFIGAPKQWLEHFERCYQEGFVDNDNIPTVLPTSLFSGDKIFGADVERMSATIASNQVSGLHAILEKLQSKPAMEEVKS” here?
**A.** not soluble

**Q.** With “MAHHHHHHMPGSLKVQTGRGDARKTVKKTVLSKGNITRSDEPAGVADSAASASVAKSSSTTASTLTIAVALSMCEQERAVEAVKETIPASASREVLRKDPIYRIMHALPRSDVLEVVRSRFEKPHCERAAAYFDLSYMKNPLRHLRLQLGCDGPTGIYLFFRRIAAHRHTLRVVDFSRNRLSADDAVLICNTLGLGVAGDVATAPGTTKASSAGAVADSTVSTAVGASAQPASSLELLDLSYNAKLGNDGAVHVVRAVRRLPSIRAVILKSVGIDDAGAVAMADVVRRWPAPALCANSAAPHALLRPVTASATKFYLNLNENYIGARGTDVLGKGLPHYVSLTLAKQQPDPARDRKRSRDDDGAACR” as the sequence, how does the “soluble on expression in E. coli” value read?
**A.** not soluble

**Q.** With “MAHHHHHHMPGVLRGKGPTRVFLPQPCNHVGNLKIVWKVKLQIYAVQTNFSRVYGAPSDAQPHVICGTKRISDVHQDIACCRILLNGVIAPPVRLQNQPLVFLTKETGDGVGITHCVECRHVSQHILRLKKNIAVNDDSPLLGAAVTNEIHTKPASSHSSADTQMIGH” as the sequence, how does the “soluble on expression in E. coli” value read?
**A.** not soluble

**Q.** Which “soluble on expression in E. coli” value does the source give for “MAHHHHHHMPLPPLEEAPRSMTRRNYLVERNRLRVSAYAPTRRELEEEDIRMAQTREERRRNMLNSWKSQSMYNPDLTRPLPGGGPRSKRMKEAATLKNPNYYKIVKEEEAQLKAERTAMYRADVLQQLKDREEYLRKWREDEKAYVSSLVESNKEQARKLEEREREEARAEKEYMNRMRESNLRELEQKRMKEREREEYELSLIRTVQAREKEKAETEERRARDMKQMMRRENEEYHRSIKKKQKEDKAREEAELKAILEYNATLAERERQEQKQRRDQYKAEFEETIEKQKEFFRTHNYDEPPESIRERNEKAAAALALIKKEERLRLADRRREYRQELMQQIREKQEWQLTHIDGV” here?
**A.** not soluble

**Q.** For “MAHHHHHHMPNSVDCDFLNAPAHPPCNNRISASSRSRDGASIRNIGSISNIGARNRGARNCDQVIHTVYVKYFEMERYLGNINYNMDYFNPVLNHPTKIEHGKIKILILDAPTNDLLPLYIKEMKNYNVTDLVRTCERTYNDGEITSAGINVHELIFPDGDAPTVDIVSNWLTIVNNVIKNNRAVAVHCVAGLGRAPVLASIVLIEFGMDPIDAIVFIRDRRKGAINKRQLQFLKAYKKKKKKKNCLRKCHFM”, which “soluble on expression in E. coli” value is on record?
**A.** not soluble

**Q.** Which “soluble on expression in E. coli” value does the source give for “MAHHHHHHMPVAPLHPELQRVLKENRRTRAFDPAAWIEMKCAKLNDYMQRCGLKACVTSVSGGIDSAVVLAMCAHAMRAHNSPIQKNVGLCQPIHSSDWALRRGKENIAACGATEVVVDQTALHTELATLVERAAGIEGGAFARGQLRSYMRTPPGFYVAQLLTQEGTPAVVMGTGNKDEDFYLGYFCKAGDGVVDVQIISDLHKSEVLLVAEVLGVPENTRHAAPSADLWEGQTDEDELGFPYDFVELFTEWYLKQRETTKIKFLNSLCDEARNQFERYVAACELVHRRNAHKLQGQVNL” here?
**A.** not soluble

**Q.** For “MAHHHHHHMPVRRYGGRYNSSSPGVSNALNPSRTAGWPLSPSPATGSKPASTHHDPVPQEAYYVKDEADARHQQQAPLREPSVEVEVEIIDDEPPRGSQKPLSVAPCTANANNSSGGSKCNAITASRYTFYTNAYQKSVYEALRSLRPLPELQEPRRVKEYAETSLKDSLYRIVEAHDVIMVAGAFFGDEGKGKTVDAVARHPLCTCIARVNSGENAGHTVYDKAGRKFVFNLAPSGLLLPGKRNYIGPECVMDPVSFMEKEVIQLIDAGIDYRDRLFIGNVCIVTPYHKLLDLLGSAANSSTLKGMAPVHGSKVMKRGIRLDHIFNDDETLRKRLEKDMDTYFGLLKVKNLSDADVVRLCREENSDGVVRVPDYVIAFAQAEDKVEFLVKLYRDRVRHNPGFPARCDVTYELHAALLRGEKVLLEGPQSYWLSNARTKFWESTTSADTTAAGLLAASQLNFQKFKSVVLNVHKAPGSSRVGIGACPSSFVPQDYFSAQNIKTLRDLPSATCAHFEAVQRTLFRDGFPHSNDKARHNGIMAPVEYSDETGTYNIGVAMAIASAQHHGECGAVTKKPRVCGFFDCVLHHEVNNIQGPYLTISALDRGDEYDKVGVTIAYVYYSPEGKQVDVNGHVYKNGDIIRAGDPVPSEPALYHCHPIVKLIDGWRDNPIAAAKRRRNAPLPRGVCELLSAIEYFTNCKILSIGNGPNGDDIIYLRQ”, which “soluble on expression in E. coli” value is on record?
**A.** not soluble

**Q.** For “MAHHHHHHMPWATTLDLKATPPPTLCVTVSNTTDVLIIADMQVDFLTPGGSLHVKGGEALLDGINAVSSQLPFRYQVATQDWHPENHCSFVTHGGPWPPHCVQGSSGAQLHAGLHTHRINAVLRKGATQQADSYSAFVDDNGVSTGLAGLLHSIGARRVFVCGVAYDFCVFFTAMDARKNGFGVVLLEDLTAAVDDAAWSARAAELKEAGVVLLSSSALVAEGTET”, which “soluble on expression in E. coli” value is on record?
**A.** soluble

**Q.** For “MAHHHHHHMQKSNEKNGPENNAKNGPENNAKNGPENNAKKGPENNAKKGPENNAKKGPENNAKKGPENNAKKGPENKEKKGHSCCGKKGSTGNPKEKKKSDKNSEDNKNSQGDKISKDHAECTPSLHVECAHNCCKKKLAFIYDCWDNFKSYKNIIEQHTKGQQENNFQLQGAGDEDSGEDGGASTTGHSMAMAMPMSFQLSTHTIILFKFWETKTVSRAGIPSQWRLLSGTP”, which “soluble on expression in E. coli” value is on record?
**A.** soluble

**Q.** For “MAHHHHHHMQLKERLQQWRERGLQGADVDPPVQRPRSFRPSCIVPRLYLGAAKDVQDVRTLRSRLLPDKLLMVVSTCDPSDPPRMELRQIAPTKGTAYTVKRLAVCSWEELEKRVVTSSFCCRLPRNEVMVATAEWLKEVLKTKSLPPVSLEECRDVQKGETDGKVSEVFEEGLYLKLCLPWKDESNFTVRPYFAVATALIHATMDGIQGAVVCYCMAGKSRSATLTCALLLYCCYDNVGRPKDEEECSAYKAVQAVVEFVREVRLCVSPNEGFIEQLRDYASDLLAV”, which “soluble on expression in E. coli” value is on record?
**A.** not soluble
